Test results: publication PMC3783020 (Cellular microbiology, 2012)

Key:
[1] = target: MBP-CHMP4B_(ΔC-Alix) (human); assay: SPR
[2] = target: T1, CHMP3 full length (residues 1-222) (human, UniProt Q9Y3E7 1-222); assay: SPR
T1 sequence (looked up): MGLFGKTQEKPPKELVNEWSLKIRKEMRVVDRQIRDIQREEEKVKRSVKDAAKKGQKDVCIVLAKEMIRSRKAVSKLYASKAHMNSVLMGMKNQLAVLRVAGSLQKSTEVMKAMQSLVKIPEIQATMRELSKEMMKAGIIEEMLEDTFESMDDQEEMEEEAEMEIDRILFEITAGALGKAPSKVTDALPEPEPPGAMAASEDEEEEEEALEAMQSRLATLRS

[3] = target: T1, CHMP3 full length (residues 1-222); assay: cryo-EM structure
[4] = target: CHMP2B-His6 (full length) (human, UniProt Q9UQN3 1-213); assay: SPR
CHMP2B-His6 (full length) (human, UniProt Q9UQN3 1-213), sequence (Q9UQN3 whole entry): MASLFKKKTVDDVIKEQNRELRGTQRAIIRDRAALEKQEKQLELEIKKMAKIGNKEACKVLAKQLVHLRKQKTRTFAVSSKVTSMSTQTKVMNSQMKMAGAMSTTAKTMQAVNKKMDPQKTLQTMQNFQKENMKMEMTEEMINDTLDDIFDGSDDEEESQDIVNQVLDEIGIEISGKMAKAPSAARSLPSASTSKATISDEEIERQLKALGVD

[5] = target: MBP-CHMP4B_(ΔC-Alix) (human); assay: SPR; remark: listed apart in the source

Molecule “CHMP2B-His6 (full length) (from UniProt Q9UQN3 1-213) (natural protein)” has a Kd [1] of 560 nM.

B1: MBP-CHMP2AΔC (residues 9-161) (domain or fragment, human, UniProt O43633 9-161, looked up)
chain: KTPEELLRQNQRALNRAMRELDRERQKLETQEKKIIADIKKMAKQGQMDAVRIMAKDLVRTRRYVRKFVLMRANIQAVSLKIQTLKSNNSMAQAMKGVTKAMGTMNRQLKLPQIQKIMMEFERQAEIMDMKEEMMNDAIDDAMGDEEDEEESD
modifications: biotin on lysines (biotin sulfo-LC-NHS, molar ratio 1:5) where it was immobilised; not biotinylated as analyte
B1 gave a Kd [2] of 3200 nM.

B2: CHMP2AΔC (residues 9-161), MBP removed (domain or fragment, human, UniProt O43633 9-161, looked up)
chain: KTPEELLRQNQRALNRAMRELDRERQKLETQEKKIIADIKKMAKQGQMDAVRIMAKDLVRTRRYVRKFVLMRANIQAVSLKIQTLKSNNSMAQAMKGVTKAMGTMNRQLKLPQIQKIMMEFERQAEIMDMKEEMMNDAIDDAMGDEEDEEESD
B2: binds [3].

B3: CHMP3ΔC (residues 9-183) (domain or fragment, human, UniProt Q9Y3E7 9-183, looked up)
chain: EKPPKELVNEWSLKIRKEMRVVDRQIRDIQREEEKVKRSVKDAAKKGQKDVCIVLAKEMIRSRKAVSKLYASKAHMNSVLMGMKNQLAVLRVAGSLQKSTEVMKAMQSLVKIPEIQATMRELSKEMMKAGIIEEMLEDTFESMDDQEEMEEEAEMEIDRILFEITAGALGKAPSK
B3 was tested, and the Kd [4] was 1400 nM.

B4: CHMP3 full length (residues 1-222) (natural protein)
chain: MGLFGKTQEKPPKELVNEWSLKIRKEMRVVDRQIRDIQREEEKVKRSVKDAAKKGQKDVCIVLAKEMIRSRKAVSKLYASKAHMNSVLMGMKNQLAVLRVAGSLQKSTEVMKAMQSLVKIPEIQATMRELSKEMMKAGIIEEMLEDTFESMDDQEEMEEEAEMEIDRILFEITAGALGKAPSKVTDALPEPEPPGAMAASEDEEEEEEALEAMQSRLATLRS
With B4 the KD1 (at low concentrations) [5] was 0.15 µM.
